Test results published in patent publication US20210040228.

System: D11-CD8stk-IL2Rg_A5-Hinge-IL2Rb
Sequence (chain, as listed by the source, chain 1 of 2): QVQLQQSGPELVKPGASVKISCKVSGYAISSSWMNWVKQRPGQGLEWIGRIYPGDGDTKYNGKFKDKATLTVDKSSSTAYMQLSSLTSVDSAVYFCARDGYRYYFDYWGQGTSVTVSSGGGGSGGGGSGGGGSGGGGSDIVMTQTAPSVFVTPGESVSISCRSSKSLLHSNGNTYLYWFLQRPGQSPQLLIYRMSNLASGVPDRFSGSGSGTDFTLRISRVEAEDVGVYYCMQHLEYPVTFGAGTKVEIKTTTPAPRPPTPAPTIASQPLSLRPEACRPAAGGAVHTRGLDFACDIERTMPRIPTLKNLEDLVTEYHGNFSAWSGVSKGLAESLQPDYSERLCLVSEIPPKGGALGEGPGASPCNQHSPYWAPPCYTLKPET
Sequence (chain, as listed by the source, chain 2 of 2): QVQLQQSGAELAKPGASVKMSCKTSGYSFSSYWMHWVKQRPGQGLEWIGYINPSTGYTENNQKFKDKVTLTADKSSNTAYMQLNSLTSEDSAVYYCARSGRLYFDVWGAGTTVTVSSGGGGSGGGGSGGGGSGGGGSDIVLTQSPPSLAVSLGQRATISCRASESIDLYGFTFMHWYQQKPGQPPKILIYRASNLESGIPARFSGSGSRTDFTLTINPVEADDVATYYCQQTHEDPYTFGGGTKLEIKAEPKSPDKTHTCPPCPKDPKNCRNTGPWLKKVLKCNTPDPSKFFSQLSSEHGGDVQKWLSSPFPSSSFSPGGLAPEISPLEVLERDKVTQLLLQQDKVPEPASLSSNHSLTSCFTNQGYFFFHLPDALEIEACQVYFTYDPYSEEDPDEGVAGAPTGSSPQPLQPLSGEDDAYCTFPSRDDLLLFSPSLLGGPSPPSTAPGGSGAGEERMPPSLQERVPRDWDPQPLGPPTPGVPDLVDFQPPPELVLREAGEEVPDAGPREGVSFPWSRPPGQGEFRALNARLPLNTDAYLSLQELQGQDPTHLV

prostate-specific antigen (PSA)
phosphorylation of Y694 of STAT5 (phosphoflow), 500 ng/mL PSA for 1 or 4 hours: In the cells expressing the PSA CCR, the presence of PSA lead to increasing STAT5 phosphorylation with time
